Blank lines part the entries; values can stand above or below the molecule they belong to.
Experiments:
[1] = target: s10_(long) H199Y/L207V; test: peptide or protein array
[2] = target: s10_(long) H199Y/T203F; test: peptide or protein array
[3] = target: s10_(long) H199Y; test: peptide or protein array
[4] = target: s10_(long) WT peptide L195[…]212; test: peptide or protein array
[5] = target: LOO10-GFP (circularly permuted superfolder GFP with strand 10 removed); test: fluorescence complementation
[6] = target: LOO10-GFP (circularly permuted superfolder GFP with strand 10 removed); test: other fluorescence titration
[7] = target: LOO10-GFP (circularly permuted superfolder GFP with strand 10 removed); test: competition experiment followed by fluorescence

Molecule: LOO10-GFP (circularly permuted superfolder GFP with strand 10 removed) (domain or fragment)
fold microarray fluorescence compared to WT [1]: 3 fold | fold microarray fluorescence compared to WT [2]: 54 fold | fold microarray fluorescence compared to WT [3]: 10 fold | mean microarray fluorescence [4]: 741 FU

Molecule: NHYLSTQTVLS [s10_(short) WT peptide N198…208]
fold increase in 520 nm signal on complementation [5]: 5 fold

Molecule: NHYLSYQTVLS [s10_(short) T203Y peptide]
fold increase in affinity compared to WT [6]: 2 fold

Second part, the molecule after the results:

fold increase in affinity compared to WT [6]: 9 fold
Molecule: NYYLSYQTVLS [s10_(short) H199Y/T203Y peptide]

fold increase in affinity compared to WT [6]: 5 fold
Molecule: NYYLSTQTVLS [s10_(short) H199Y peptide]

fold weaker affinity than WT (approximated) [7]: > 10 fold
Molecule: LPDNHYLSTQTVRSKDPNE [s10 L207R peptide, long format (free 19-mer)]

From publication doi:10.1101/2020.05.20.105668
